Assay results: publication PMC9896810, “Crk proteins activate the Rap1 guanine nucleotide exchange factor C3G by segregated adaptor-dependent and -independent mechanisms” (Cell Communication and Signaling : CCS, 2023)

Legend:
C3G-AAAP = target: T1, C3G-AAAP (human, UniProt Q13905-1 4-1077, P283A | P284A | L286 | P287 | P289A | P453A | P454A | L456A | P457A | K459A | …); test: ITC; single-PRM mutant of C3G in the cell titrated with CrkL or CrkL-SH3N, 25 °C, 300 mM NaCl, pH 7.5; SEDPHAT, 1:1 heteroassociation model; N is the competent fraction of C3G; settings: both partners purified
T1 construct: human C3G isoform a, residues 4-1077; only P4 kept, P1, P2 and P3 mutated to Ala; source: E. coli BL21 (DE3), purified (IMAC, TEV digestion, reversed IMAC, SEC); not shown: His, N-terminal, cleaved; Halo, N-terminal, cleaved
T1 sequence (looked up): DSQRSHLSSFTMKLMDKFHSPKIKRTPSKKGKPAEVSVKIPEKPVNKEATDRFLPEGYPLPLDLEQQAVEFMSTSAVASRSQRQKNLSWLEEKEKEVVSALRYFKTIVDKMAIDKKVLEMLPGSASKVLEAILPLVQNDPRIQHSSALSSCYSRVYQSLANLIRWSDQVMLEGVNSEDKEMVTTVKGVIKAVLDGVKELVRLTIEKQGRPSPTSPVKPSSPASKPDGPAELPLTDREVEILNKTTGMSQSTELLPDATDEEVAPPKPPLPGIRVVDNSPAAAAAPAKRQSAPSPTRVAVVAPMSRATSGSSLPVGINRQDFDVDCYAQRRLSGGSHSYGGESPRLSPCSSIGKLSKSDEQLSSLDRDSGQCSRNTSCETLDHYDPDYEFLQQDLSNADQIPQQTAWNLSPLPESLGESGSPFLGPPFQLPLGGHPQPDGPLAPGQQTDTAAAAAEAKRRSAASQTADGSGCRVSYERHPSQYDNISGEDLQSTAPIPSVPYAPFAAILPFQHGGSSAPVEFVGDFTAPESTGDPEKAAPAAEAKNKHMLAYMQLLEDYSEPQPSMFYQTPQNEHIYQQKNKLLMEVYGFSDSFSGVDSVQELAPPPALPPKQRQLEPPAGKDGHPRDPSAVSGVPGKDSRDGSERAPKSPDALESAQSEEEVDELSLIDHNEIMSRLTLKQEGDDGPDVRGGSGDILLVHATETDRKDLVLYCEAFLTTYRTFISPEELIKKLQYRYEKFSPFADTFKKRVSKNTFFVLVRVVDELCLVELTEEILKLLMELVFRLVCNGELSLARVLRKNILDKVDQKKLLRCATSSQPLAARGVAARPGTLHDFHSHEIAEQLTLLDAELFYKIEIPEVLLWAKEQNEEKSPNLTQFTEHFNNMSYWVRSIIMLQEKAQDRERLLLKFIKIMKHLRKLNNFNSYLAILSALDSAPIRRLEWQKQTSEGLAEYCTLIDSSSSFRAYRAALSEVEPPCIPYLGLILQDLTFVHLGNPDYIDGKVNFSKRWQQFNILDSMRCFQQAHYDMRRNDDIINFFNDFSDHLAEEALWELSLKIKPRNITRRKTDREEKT

[1] = target: T2, Src-phosphorylated C3G-AAPA (human, UniProt Q13905-1 4-1077, P283A | P284A | L286 | P287 | P289A | P453A | P454A | L456A | P457A | K459A | …, phosphotyrosines from phosphorylation in vitro with Src (sites not given)); test: as above; settings: both partners purified
T2 construct: human C3G isoform a, residues 4-1077; only P3 kept, P1, P2 and P4 mutated to Ala; also called pC3G-AAPA; source: E. coli BL21 (DE3), purified; phosphorylated in vitro with the recombinant kinase domain of Src, then SEC; not shown: His, N-terminal, cleaved; Halo, N-terminal, cleaved
T2 sequence (looked up): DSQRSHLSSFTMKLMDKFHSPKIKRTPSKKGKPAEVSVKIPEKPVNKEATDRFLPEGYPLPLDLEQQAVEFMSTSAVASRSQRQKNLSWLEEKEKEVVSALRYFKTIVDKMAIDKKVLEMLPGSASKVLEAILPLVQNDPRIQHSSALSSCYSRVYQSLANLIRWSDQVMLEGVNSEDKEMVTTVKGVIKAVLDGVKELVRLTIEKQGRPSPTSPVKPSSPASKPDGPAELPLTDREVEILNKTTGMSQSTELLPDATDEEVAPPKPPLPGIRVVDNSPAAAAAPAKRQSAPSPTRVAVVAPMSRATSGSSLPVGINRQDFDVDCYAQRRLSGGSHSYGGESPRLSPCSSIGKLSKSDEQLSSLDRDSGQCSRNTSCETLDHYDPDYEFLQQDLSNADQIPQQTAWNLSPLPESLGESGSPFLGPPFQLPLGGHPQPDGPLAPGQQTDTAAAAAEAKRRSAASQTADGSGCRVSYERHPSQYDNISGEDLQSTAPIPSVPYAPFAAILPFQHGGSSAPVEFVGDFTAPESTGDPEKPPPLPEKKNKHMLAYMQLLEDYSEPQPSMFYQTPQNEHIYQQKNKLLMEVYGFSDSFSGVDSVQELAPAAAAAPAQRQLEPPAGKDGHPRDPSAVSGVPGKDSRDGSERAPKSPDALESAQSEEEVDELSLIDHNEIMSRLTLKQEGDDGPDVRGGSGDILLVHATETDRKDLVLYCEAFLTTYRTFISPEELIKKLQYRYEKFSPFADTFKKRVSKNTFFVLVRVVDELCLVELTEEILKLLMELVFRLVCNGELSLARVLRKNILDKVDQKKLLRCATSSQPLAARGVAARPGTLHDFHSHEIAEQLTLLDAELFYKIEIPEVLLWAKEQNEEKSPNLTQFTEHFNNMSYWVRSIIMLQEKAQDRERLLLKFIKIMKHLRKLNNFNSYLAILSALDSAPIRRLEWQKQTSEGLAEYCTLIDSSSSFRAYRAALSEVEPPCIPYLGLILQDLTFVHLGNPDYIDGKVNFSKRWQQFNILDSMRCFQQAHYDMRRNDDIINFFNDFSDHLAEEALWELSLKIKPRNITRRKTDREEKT

B1: CrkL (full-length) (natural protein, human, UniProt P46109 1-303, looked up)
chain: MSSARFDSSDRSAWYMGPVSRQEAQTRLQGQRHGMFLVRDSSTCPGDYVLSVSENSRVSHYIINSLPNRRFKIGDQEFDHLPALLEFYKIHYLDTTTLIEPAPRYPSPPMGSVSAPNLPTAEDNLEYVRTLYDFPGNDAEDLPFKKGEILVIIEKPEEQWWSARNKDGRVGMIPVPYVEKLVRSSPHGKHGNRNSNSYGIPEPAHAYAQPQTTTPLPAVSGSPGAAITPLPSTQNGPVFAKAIQKRVPCAYDKTALALEVGDIVKVTRMNINGQWEGEVNGRKGLFPFTHVKIFDPQNPDENE
notes: human CrkL, residues 1-303, in pETEV15b; also called Crk-like protein; source: E. coli BL21 (DE3), purified (IMAC, TEV digestion, SEC); not shown: His, N-terminal, cleaved
Question: For B1, which Kd (C3G-AAAP) is on record?
Answer: The Kd was 2400 nM.

B2: CrkL-SH3N (domain or fragment, human, UniProt P46109 125-182, looked up)
chain: LEYVRTLYDFPGNDAEDLPFKKGEILVIIEKPEEQWWSARNKDGRVGMIPVPYVEKLV
notes: human CrkL, SH3N domain, residues 125-182, in pETEV15b; source: E. coli BL21 (DE3), purified (IMAC, TEV digestion, SEC); not shown: His, N-terminal, cleaved
Question: What does the source list for B2?
Answer: Kd (C3G-AAAP): 2700 nM; stoichiometry N (C3G-AAAP): 0.71; Kd [1]: 2100 nM; stoichiometry N [1]: 0.08
